Earlier results on three substances are cited in publication PMC4934914.

The target of series [1] is BsHemH (Bacillus subtilis) (UniProt P32396).
The target in series [2] is BsSufU (Bacillus subtilis) (UniProt O32163).
The target in series [3] is IscS (Escherichia coli) (UniProt P0A6B7).
IscS (Escherichia coli), sequence (P0A6B7 whole entry): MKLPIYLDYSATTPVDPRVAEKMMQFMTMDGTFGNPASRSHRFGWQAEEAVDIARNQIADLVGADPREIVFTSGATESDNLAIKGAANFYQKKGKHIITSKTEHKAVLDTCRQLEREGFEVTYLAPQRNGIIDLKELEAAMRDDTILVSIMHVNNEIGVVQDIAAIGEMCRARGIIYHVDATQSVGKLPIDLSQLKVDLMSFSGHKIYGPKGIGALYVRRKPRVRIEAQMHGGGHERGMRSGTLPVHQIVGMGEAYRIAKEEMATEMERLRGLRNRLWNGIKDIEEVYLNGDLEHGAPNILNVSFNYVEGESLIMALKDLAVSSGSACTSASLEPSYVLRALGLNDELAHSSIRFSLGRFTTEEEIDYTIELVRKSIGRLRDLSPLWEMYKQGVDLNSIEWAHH

BsSufU (Bacillus subtilis), sequence (O32163 whole entry): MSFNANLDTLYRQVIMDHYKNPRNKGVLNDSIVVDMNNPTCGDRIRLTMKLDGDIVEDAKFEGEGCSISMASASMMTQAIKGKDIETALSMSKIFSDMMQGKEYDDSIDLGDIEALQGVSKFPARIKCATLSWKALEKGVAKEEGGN
CyaY, sequence (P27838 whole entry): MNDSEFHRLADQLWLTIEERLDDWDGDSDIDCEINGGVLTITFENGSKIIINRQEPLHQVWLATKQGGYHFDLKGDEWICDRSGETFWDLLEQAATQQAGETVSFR
BsFra (frataxin), sequence (Q797E6 whole entry): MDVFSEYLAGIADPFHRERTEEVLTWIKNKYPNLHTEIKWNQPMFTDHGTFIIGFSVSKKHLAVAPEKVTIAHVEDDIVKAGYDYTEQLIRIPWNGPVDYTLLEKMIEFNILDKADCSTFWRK
BsSufS, sequence (O32164 whole entry): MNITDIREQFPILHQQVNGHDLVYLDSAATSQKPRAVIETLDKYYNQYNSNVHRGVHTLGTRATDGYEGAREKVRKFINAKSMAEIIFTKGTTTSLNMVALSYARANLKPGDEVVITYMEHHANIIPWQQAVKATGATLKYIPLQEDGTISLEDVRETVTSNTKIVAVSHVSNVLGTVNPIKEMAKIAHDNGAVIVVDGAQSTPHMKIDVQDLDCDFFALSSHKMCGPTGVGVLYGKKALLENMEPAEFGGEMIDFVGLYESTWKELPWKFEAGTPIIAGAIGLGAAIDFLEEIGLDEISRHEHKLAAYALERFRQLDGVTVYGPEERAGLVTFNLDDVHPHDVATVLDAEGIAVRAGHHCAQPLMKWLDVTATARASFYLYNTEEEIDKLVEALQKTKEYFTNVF
BsHemH (Bacillus subtilis), sequence (P32396 whole entry): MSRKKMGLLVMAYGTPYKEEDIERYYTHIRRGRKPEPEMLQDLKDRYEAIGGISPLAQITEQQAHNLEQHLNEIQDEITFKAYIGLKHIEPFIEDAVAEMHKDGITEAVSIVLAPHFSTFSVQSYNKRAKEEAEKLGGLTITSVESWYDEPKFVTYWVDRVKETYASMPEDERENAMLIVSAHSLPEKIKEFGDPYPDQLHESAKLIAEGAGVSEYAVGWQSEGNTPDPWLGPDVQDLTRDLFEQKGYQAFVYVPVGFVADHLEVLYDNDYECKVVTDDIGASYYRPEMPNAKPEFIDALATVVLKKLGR

With BsFra (frataxin) (from UniProt Q797E6), the Kd in series [1] is 1630 nM.

Regarding BsSufS (from UniProt O32164), in series [2], the Kd is 2630 nM.

For the substance CyaY (from UniProt P27838), the Kd in series [3] was 18500 nM.

One may read the Kd as the equilibrium constant for the complex coming apart.
